Measurements as given in PMC9088798, “An Approach to Derive Functional Peptide Inhibitors of Transcription Factor Activity”.

Assays:
[1] = target: cJun bZIP (human, UniProt P05412); assay: CD (281 nm DNA peak); 20 uM cJun, 5 uM DNA; DNA peak decreases by 55%; EMSA: 150 mM KCl, 1 mM DTT, 1 mM EDTA, 10 mM Tris, 10 mM MgCl2, pH 8, 4 C, 30 min; CD: buffer with TCEP, pH 7.4, 30 min (rest not in material); conditions: protein: recombinant; tags: C-terminal GAP; His-SUMO cleaved off; chain copies: 2; blunt
[2] = target: T1, HingeW (designed); assay: CD (281 nm DNA peak); EMSA: 150 mM KCl, 1 mM DTT, 1 mM EDTA, 10 mM Tris, 10 mM MgCl2, pH 8, 4 C, 30 min; CD: buffer with TCEP, pH 7.4, 30 min (rest not in material); conditions: protein: recombinant; tags: N-terminal MAS, C-terminal GAP-His6; blunt
T1 chain: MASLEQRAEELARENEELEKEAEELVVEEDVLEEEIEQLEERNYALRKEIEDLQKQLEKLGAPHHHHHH

[3] = target: T2, A-FosW (designed); assay: CD (281 nm DNA peak); 50 uM A-FosW, 5 uM DNA; EMSA: 150 mM KCl, 1 mM DTT, 1 mM EDTA, 10 mM Tris, 10 mM MgCl2, pH 8, 4 C, 30 min; CD: buffer with TCEP, pH 7.4, 30 min (rest not in material); conditions: protein: recombinant; tags: N-terminal MAS, C-terminal GAP-His6; blunt
T2 chain: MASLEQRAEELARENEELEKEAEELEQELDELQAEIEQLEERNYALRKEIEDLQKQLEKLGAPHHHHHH

cJun bZIP, sequence (P05412 other isoform, or with tags, fused parts or gaps): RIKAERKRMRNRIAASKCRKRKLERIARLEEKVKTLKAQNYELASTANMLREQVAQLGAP

B1: TRE DNA (dsDNA)
DNA 1: GTCAGTCAGTGACTCAATCGGTCA
DNA 2: TGACCGATTGAGTCACTGACTGAC
binding result [1]: binds | binding result [2]: no binding | binding result [3]: no binding
